Experimental data taken from publication PMC11602133, “Uncoupling [sequence]’s functions through modification of a protein motif identified by co-ortholog analysis” (Nucleic Acids Research, 2024).

Biological target: the molecule itself
Assay: native gel or EMSA; in vitro produced proteins (wheat germ TnT) mixed with a DY-682 labelled ~100 bp DNA probe containing a CArG-box (SAUR10 probe); protein complexes read from the shifted bands on DNA; anti-FLAG antibody added for supershift where FUL-FLAG was used

B1: FRUITFULL (FUL), Arabidopsis, in vitro produced (natural protein)
chain: not shown
notes: also called FUL(ST); source: in vitro translated (TnT SP6 High-Yield Wheat Germ Protein Expression System, pSPUTK vector)
stoichiometry N: 2
